Reference: paper PMC4382335
Values belong to the substance of their own block, whether it stands above or below them.

Experiments:
[1] = biological target: papain from papaia latex (papaia (from papaia latex)) (UniProt P00784)
[2] = biological target: papain from papaia latex (papaia (from papaia latex)) (UniProt P00784); remark: listed apart in the source
[3] = biological target: TcCYS4-His-tag, recombinant cystatin TcCYS4 from Theobroma cacao (Theobroma cacao); test: SEC; as a2, samples treated in the range from 55 to 75°C for 10 min; 20 uM, 100 mM phosphate buffer pH 6, 150 mM NaCl, Superdex 75 5/150
[4] = biological target: papain from papaia latex (papaia (from papaia latex)) (UniProt P00784); remark: listed apart in the source
[5] = biological target: TcCYS4-His-tag, recombinant cystatin TcCYS4 from Theobroma cacao (Theobroma cacao); test: SEC; TcCYS4 at 20 uM in 100 mM phosphate buffer pH 6, 150 mM NaCl, treated at different temperatures for 10 min (all heat treatments), Superdex 75 5/150, LMW standards
[6] = biological target: papain from papaia latex (papaia (from papaia latex)) (UniProt P00784); remark: listed apart in the source
[7] = biological target: papain from papaia latex (papaia (from papaia latex)) (UniProt P00784); remark: listed apart in the source

Sequence of UniProt P00784 (P00784 134-345): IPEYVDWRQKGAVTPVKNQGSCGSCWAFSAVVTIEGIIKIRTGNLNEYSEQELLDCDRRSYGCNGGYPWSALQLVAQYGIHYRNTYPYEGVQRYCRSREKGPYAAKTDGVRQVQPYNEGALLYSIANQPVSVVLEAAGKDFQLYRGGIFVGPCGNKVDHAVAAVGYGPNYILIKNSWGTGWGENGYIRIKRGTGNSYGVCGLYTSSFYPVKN

papain inhibition rate after treatment of the cystatin for 10 min at temperatures up to 90°C [1]: 100%
Substance: recombinant cystatin TcCYS3 from Theobroma cacao (natural protein)

papain inhibitory activity after treatment of the cystatin for 10 min at different temperatures up to 90°C; 70% of activity at 65°C [2]: > 100%
stoichiometry N [3]: 3
percentage of inhibition of papain at pH values of the reaction medium from 2 to 10.5 (20% at pH 3, 70% at pH 3.5, about 90% from pH 4 to 9, about 80% at pH 10.5) [4]: 90%
stoichiometry N [5]: 2
residual activity of papain with TcCYS4 treated at 65°C for 0 to 600 s (plateau after 300 s) [6]: 60%
Substance: TcCYS4-His-tag, recombinant cystatin TcCYS4 from Theobroma cacao (natural protein)

papain inhibitory activity after treatment of the cystatin for 10 min at different temperatures up to 90°C; around 52% at 65°C [7]: 65%
Substance: recombinant cystatin TcCYS2 from Theobroma cacao (natural protein)
